What was measured:
[1] = molecular target: the molecule itself; assay: SEC-SLS; SEC with triple detection (UV, refractometer, SLS 7° and 90°, viscometer), Superdex 75 Increase 10/300 GL, 25 mM Hepes pH 7.5, 150 mM NaCl, 20°C; sample 1–5 mg/mL
[2] = molecular target: T1, MtSteB△TM (soluble M. tuberculosis SteB devoid of its TM domain, residues 38–314) (Mycobacterium tuberculosis, UniProt P9WJ83 38-314); assay: BLI; biotinylated MtRipACC immobilised on streptavidin biosensors; Octet-Red384, 25°C; 25 mM HEPES pH 7.5, 150 mM NaCl, 5% glycerol, 1 mg/mL BSA, 0.05% Tween 20; MtSteB 200–3.125 μM or MtRipACAT 80–1.25 μM; steady-state signal, one-site binding model; apparent Kd; settings: both partners purified
T1 construct: Homodimer in both crystal structures; also called MctB; Rv1698; not shown: His6, N-terminal, cleaved; SUMO, N-terminal, cleaved
T1 sequence (P9WJ83 38-314): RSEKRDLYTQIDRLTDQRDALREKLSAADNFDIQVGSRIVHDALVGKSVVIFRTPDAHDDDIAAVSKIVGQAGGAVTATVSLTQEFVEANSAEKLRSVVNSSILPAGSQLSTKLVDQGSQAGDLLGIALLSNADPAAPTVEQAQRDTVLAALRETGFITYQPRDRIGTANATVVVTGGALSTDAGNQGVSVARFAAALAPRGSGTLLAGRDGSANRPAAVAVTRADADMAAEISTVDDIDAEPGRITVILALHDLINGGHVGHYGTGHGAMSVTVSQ

B1: MtSteA△TM (truncated soluble construct of M. tuberculosis SteA, residues 12–344) (domain or fragment)
chain: SRPGLIGIARVDRNIDRLLRRVCPGDIVVLDVLDLDRITADALVEAEIAAVVNASSSVSGRYPNLGPEVLVTNGVTLIDETGPEIFKKVKDGAKVRLYEGGVYAGDRRLIRGTERTDHDIADLMREAKSGLVAHLEAFAGNTIEFIRSESPLLIDGIGIPDVDVDLRRRHVVIVADEPSGPDDLKSLKPFIKEYQPVLVGVGTGADVLRKAGYRPQLIVGDPDQISTEVLKCGAQVVLPADADGHAPGLERIQDLGVGAMTFPAAGSATDLALLLADHHGAALLVTAGHAANIETFFDRTRVQSNPSTFLTRLRVGEKLVDAKAVATLYRNHI
notes: Dimer in solution and in the crystal; also called Rv1697; not shown: His6, N-terminal, cleaved; SUMO, N-terminal, cleaved
Q: Which “stoichiometry N” value [1] does the source give for B1 here?
A: 2

B2: MtRipACC (coiled-coil domain of M. tuberculosis RipA, residues 40–240) (domain or fragment)
chain: DPQTDTIAALIADVAKANQRLQDLSDEVQAEQESVNKAMVDVETARDNAAAAEDDLEVSQRAVKDANAAIAAAQHRFDTFAAATYMNGPSVSYLSASSPDEIIATVTAAKTLSASSQAVMANLQRARTERVNTESAARLAKQKADKAAADAKASQDAAVAALTETRRKFDEQREEVQRLAAERDAAQARLQAARLVAWSSE
modifications: biotin (EZ-Link NHS-PEG4-Biotin, 20 molar excess) in the BLI assays only
notes: Biotinylated and immobilised on streptavidin sensors for BLI; not biotinylated in the crystal of the complex; also called RipA coiled-coil domain; CC domain of RipA; not shown: His6, N-terminal, cleaved; SUMO, N-terminal, cleaved
Q: How did the Kd [2] turn out when B2 was run?
A: 42.6 ± 4.4 µM

Source: PMC12977500, “Mechanistic insights into SteAB regulation of cell wall hydrolase RipA in Mycobacterium tuberculosis” (mBio, 2026)
